From paper PMC11436768 (Nature Communications, 2024) come the findings set out here.

For series [1], the target named is E1o (S. scrofa full-length E1o, GST tag cut off) (S. scrofa). As to the kind of experiment: SPR. A general note: In SPR one partner is held on a chip, and binding of the other changes the refractive index at the surface.
Series [2] deals with the molecule itself. As to the kind of experiment: cryo-electron tomography with subtomogram averaging.

Usually Kd stands for the equilibrium constant for the complex coming apart. A lower Kd goes with a tighter complex. As to “E3 (S. scrofa full-length E3, GST tag cut off) (from UniProt P09623 36-509) (natural protein)”, in series [1], the dissociation constant Kd was determined as 1.84 µM.

B1: E3 subunit (dihydrolipoyl dehydrogenase) of native 2-oxoglutarate dehydrogenase complex from Sus scrofa heart (natural protein)
chain: ADQPIDADVTVIGSGPGGYVAAIKAAQLGFKTVCIEKNETLGGTCLNVGCIPSKALLNNSHYYHMAHGKDFASRGIEMSEVRLNLEKMMEQKSNAVKALTGGIAHLFKQNKVVRVNGYGKITGKNQVTATKADGSTEVINTKNILIATGSEVTPFPGITIDEDTVVSSTGALSLKKVPEKMVVIGAGVIGVELGSVWQRLGADVTAVELLGHVGGIGIDMEVSKNFQRILQKQGFKFKLNTKVIGATKKSDGNIDVSIEAASGGKAEVITCDVLLVCIGRRPFTQNLGLEELGIELDPRGRIPVNTRFQTKIPNIYAIGDVVAGPMLAHKAEDEGIICVEGMAGGAVHIDYNCVPSVIYTHPEVAWVGKSEEQLKEEGIEYKVGKFPFAANSRAKTNADTDGMVKILGQKSTDRVLGAHIIGPGAGEMINEAALALEYGASCEDIARVCHAHPTLSEAFREANLAASFGKAINF
Consider B1, for which, in series [2], the binding result is on record as “binds”.
